# Experimental data reported in patent US20040024185A1.
# T1: NF-AT3 expressed from an expression construct in HepG2 cells
# T1 sequence (Q14934 1-902, species assumed, looked up): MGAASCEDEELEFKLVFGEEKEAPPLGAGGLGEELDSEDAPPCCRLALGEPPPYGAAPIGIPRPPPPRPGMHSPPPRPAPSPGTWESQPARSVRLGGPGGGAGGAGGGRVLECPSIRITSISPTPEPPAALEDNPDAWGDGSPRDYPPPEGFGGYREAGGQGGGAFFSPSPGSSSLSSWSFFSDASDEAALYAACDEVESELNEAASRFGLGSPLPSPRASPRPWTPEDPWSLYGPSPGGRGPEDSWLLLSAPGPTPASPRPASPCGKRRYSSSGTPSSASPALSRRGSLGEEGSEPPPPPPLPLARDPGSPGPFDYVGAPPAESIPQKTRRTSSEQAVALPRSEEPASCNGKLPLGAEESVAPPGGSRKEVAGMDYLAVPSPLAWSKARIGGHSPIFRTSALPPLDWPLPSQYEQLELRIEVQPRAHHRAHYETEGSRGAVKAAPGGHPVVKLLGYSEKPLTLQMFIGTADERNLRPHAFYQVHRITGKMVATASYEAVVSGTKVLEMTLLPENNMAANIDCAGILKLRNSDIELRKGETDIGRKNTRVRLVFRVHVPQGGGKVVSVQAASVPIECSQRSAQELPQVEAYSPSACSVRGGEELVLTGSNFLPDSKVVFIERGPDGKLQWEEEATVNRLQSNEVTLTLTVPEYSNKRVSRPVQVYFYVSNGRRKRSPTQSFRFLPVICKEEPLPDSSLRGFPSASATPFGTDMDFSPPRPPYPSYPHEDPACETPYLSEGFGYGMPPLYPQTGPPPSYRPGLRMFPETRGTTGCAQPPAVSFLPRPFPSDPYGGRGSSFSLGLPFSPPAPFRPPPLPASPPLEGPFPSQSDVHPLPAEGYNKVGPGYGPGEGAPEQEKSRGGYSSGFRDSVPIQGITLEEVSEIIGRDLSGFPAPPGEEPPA
# T2: NF-ATp expressed from an NF-ATp expression plasmid in HepG2 cells
# T2 sequence (Q13469 1-925, species assumed, looked up): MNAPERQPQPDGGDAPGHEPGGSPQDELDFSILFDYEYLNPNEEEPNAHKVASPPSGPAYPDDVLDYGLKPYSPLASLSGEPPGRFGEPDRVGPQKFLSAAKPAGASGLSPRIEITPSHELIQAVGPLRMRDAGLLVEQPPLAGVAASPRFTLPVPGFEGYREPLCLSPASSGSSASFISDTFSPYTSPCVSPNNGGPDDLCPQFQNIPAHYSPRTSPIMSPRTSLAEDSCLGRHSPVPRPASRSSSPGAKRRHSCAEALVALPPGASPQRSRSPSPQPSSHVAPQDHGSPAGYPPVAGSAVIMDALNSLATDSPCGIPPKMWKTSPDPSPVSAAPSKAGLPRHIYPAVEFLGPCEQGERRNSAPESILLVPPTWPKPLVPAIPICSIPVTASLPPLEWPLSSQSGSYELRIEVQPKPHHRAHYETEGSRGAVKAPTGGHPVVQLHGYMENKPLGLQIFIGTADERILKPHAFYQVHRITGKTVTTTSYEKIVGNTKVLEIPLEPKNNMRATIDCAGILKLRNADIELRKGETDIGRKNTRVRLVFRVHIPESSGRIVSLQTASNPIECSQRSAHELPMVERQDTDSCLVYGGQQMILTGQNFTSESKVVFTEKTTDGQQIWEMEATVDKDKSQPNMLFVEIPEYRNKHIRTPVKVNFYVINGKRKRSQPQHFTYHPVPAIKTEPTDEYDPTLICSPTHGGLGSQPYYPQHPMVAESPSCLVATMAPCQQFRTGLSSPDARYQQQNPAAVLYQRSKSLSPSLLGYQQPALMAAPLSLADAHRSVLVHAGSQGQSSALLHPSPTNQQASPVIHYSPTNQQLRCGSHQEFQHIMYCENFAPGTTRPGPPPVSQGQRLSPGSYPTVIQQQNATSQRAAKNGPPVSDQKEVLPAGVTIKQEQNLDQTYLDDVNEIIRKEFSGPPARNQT
# T3: NF-ATc expressed from an expression construct in HepG2 cells
# T3 sequence (O95644 1-943, species assumed, looked up): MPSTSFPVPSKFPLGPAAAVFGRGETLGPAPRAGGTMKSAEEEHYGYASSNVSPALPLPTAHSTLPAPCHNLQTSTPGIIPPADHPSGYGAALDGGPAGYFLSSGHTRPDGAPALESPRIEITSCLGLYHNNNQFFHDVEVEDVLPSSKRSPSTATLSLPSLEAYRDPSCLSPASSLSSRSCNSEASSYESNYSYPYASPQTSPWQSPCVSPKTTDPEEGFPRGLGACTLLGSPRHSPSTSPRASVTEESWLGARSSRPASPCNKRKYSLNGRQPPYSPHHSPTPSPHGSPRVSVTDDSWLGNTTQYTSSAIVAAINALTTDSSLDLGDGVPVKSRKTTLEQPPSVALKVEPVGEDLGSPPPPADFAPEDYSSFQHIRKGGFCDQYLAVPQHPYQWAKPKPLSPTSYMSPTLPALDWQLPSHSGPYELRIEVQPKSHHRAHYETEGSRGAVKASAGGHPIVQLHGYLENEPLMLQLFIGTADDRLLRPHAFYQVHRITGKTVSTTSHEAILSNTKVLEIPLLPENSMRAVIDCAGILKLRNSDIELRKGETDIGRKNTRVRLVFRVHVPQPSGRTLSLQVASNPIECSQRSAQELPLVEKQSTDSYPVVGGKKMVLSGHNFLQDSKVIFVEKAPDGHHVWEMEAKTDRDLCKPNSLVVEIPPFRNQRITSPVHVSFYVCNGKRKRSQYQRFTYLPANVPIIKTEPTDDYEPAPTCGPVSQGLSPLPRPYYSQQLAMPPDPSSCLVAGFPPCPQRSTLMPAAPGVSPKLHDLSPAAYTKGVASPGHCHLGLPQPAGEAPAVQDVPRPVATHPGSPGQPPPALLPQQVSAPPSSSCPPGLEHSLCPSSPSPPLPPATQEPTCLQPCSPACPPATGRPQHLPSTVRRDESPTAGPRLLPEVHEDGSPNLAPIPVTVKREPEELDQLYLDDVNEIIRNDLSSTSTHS
# T4: NF-AT4 expressed from an expression construct
# T4 sequence (Q12968 2-1075, species assumed, looked up): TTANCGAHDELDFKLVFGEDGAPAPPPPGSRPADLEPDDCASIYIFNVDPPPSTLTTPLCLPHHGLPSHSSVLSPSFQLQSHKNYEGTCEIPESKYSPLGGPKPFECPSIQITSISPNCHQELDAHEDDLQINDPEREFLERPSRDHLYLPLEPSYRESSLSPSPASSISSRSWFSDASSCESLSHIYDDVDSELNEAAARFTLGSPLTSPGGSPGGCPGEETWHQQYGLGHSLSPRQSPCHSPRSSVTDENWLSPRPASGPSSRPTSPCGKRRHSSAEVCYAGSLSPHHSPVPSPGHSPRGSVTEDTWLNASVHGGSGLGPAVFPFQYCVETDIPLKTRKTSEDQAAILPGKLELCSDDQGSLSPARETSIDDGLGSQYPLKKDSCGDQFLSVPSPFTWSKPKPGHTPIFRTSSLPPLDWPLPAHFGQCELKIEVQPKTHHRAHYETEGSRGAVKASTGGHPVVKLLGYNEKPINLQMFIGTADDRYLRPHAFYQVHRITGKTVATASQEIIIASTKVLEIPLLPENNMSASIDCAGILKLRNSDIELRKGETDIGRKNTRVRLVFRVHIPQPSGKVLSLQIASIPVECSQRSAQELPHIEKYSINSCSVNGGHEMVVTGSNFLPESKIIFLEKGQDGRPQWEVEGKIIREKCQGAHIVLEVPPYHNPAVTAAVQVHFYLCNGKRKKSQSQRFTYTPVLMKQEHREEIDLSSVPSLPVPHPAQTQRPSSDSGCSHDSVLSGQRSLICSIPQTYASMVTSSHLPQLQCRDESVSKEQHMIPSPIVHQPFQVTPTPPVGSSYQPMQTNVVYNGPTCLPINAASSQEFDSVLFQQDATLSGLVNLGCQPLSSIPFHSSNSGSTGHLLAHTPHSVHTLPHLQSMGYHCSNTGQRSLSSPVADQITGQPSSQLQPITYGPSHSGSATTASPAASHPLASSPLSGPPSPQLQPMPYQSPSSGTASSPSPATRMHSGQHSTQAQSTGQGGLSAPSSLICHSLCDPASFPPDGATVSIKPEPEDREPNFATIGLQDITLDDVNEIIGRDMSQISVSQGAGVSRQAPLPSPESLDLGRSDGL
# B1: NIP45 expressed from a NIP45 expression plasmid (protein)
# chain: MAEPLRGRGPRSRGGRGARRARGARGRCPRARQSPARLIPDTVLVDLVSDSDEEVLEVADPVEVPVARLPAPAKPEQDSDSDSEGAAEGPAGAPRTLVRRRRRRLLDPGEAPVVPVYSGKVQSSLNLIPDNSSLLKLCPSEPEDEADLTNSGSSPSEDDALPSGSPWRKKLRKKCEKEEKKMEEFPDQDISPLPQPSSRNKSRKHTEALQKLREVNKRLQDLRSCLSPKQHQSPALQSTDDEVVLVEGPVLPQSSRLFTLKIRCRADLVRLPVRMSEPLQNVVDHMANHLGVSPNRILLLFGESELSPTATPSTLKLGVADIIDCVVLASSSEATETSQELRLRVQGKEKHQMLEISLSPDSPLKVLMSHYEEAMGLSGHKLSFFFDGTKLSGKELPADLGLESGDLIEVWG
# Legend:
# Test in all cases: cell-based or functional assay
# [1] = target: T1, NF-AT3 expressed from an expression construct in HepG2 cells
# [2] = target: T2, NF-ATp expressed from an NF-ATp expression plasmid in HepG2 cells
# [3] = target: T3, NF-ATc expressed from an expression construct in HepG2 cells
# [4] = target: T4, NF-AT4 expressed from an expression construct
binder,measurement,setting,value
B1,transactivation of a 3X NF-AT-CAT reporter in HepG2 cells,[1],3 fold
same,"CAT activity of a 3X NF-AT-CAT reporter in HepG2 cells, relative to NF-ATp alone",[2],4 to 5 fold
same,"CAT activity of a 3X NF-AT-CAT reporter in HepG2 cells, relative to vector alone",[2],25 to 30 fold
same,transactivation of a 3X NF-AT-CAT reporter in HepG2 cells,[3],4 fold
same,transactivation of a 3X NF-AT-CAT reporter in HepG2 cells,[4],2 fold
